Experimental data taken from patent publication US20240076330A1.

What was measured:
[1] = target: IL-6 receptor (IL6R) (human) (UniProt P08887); experiment: cell-based or functional assay
IFNGR1 (human) = IFNGR1 (human) (UniProt P15260); experiment: cell-based or functional assay
Chain of UniProt P15260 (P15260 18-489): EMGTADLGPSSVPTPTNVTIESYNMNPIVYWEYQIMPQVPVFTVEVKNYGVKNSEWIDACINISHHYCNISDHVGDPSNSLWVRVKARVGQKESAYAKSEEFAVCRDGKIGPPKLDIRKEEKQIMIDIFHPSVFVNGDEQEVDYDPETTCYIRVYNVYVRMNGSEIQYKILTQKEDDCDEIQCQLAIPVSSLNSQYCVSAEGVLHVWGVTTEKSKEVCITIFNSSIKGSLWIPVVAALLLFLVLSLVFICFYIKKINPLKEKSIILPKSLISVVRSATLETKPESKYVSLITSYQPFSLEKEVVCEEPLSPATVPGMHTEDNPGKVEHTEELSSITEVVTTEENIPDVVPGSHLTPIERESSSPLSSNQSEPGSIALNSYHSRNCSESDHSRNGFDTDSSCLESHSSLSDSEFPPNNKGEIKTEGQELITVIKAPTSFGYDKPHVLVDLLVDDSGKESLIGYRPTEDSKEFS

Chain of UniProt P08887 (P08887 20-468): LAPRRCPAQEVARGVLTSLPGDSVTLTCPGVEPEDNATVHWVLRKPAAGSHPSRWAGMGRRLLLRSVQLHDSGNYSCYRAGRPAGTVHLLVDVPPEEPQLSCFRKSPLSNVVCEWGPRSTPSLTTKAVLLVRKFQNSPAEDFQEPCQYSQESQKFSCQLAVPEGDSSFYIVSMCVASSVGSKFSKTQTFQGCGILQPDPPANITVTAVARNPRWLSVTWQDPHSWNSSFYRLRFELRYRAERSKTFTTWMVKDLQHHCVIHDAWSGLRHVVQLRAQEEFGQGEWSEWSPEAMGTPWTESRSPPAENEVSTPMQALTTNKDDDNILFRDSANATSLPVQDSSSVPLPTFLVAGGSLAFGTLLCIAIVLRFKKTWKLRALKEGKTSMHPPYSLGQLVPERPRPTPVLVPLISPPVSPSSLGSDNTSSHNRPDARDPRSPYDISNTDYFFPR

Row | Substance | pSTAT1 levels after IL-6 in THP1-Cas9 cells with gRNAs targeting IL6R (fold reduction) [1] | pSTAT3 levels after IL-6 in THP1-Cas9 cells with gRNAs targeting IL6R (fold reduction) [1] | pSTAT1 levels after IFNγ in THP1-Cas9 cells with gRNAs targeting IFNGR1 (fold decrease) (IFNGR1 (human)) | percent of cells with increased pSTAT1 after IFNγ, clusters with gRNAs targeting IFNGR1 (IFNGR1 (human)) [%]
1 | IL-6 (from UniProt P05231 30-212) (ligand) | 2 | 2 |  | 
2 | IFNγ (from UniProt P01579 24-166) (ligand) |  |  | 15 | 25
